# Measured values published in patent publication US20210388087A1 (Chugai, published 2021).
# Changes are numbered by the printed parent chain. Numbers in names are those of the source.
# B1: H183/L072 VH F27Y (antibody, name in Kabat numbering, V domains shown)
# VH: QVQLVESGGGLVQPGRSLRLSCAASGYTFSNAWMHWVRQAPGKGLEWVAQIKDKGNAYAAYYAPSVKGRFTISRDDSKNSIYLQMNSLKTEDTAVYYCHYVHYASASTVLPAFGVDAWGQGTTVTVSS
# VL: DIVMTQSPLSLPVTPGEPASISCQASQELVHMNRNTYLHWYQQKPGQAPRLLIYKVSNRFPGVPDRFSGSGSGTDFTLKISRVEAEDVGVYYCAQGTSVPFTFGQGTKLEIK
# B2: H183/L072 VH F29V (antibody, name in Kabat numbering, V domains shown)
# VH: B1 VH with Y27F, F29V
# VL: B1 VL
# B3: H183/L072 VH G26E (antibody, name in Kabat numbering, V domains shown)
# VH: B1 VH with G26E, Y27F
# VL: B1 VL
# B4: H183/L072 VH G26W (antibody, name in Kabat numbering, V domains shown)
# VH: B1 VH with G26W, Y27F
# VL: B1 VL
# B5: H183/L072 VH F29T (antibody, name in Kabat numbering, V domains shown)
# VH: B1 VH with Y27F, F29T
# VL: B1 VL
# B6: H183/L072 VH G26T (antibody, name in Kabat numbering, V domains shown)
# VH: B1 VH with G26T, Y27F
# VL: B1 VL
# B7: H183/L072 VH G52cA (antibody, name in Kabat numbering, V domains shown)
# VH: B1 VH with Y27F, G55A
# VL: B1 VL
# B8: H183/L072 VH G26Q (antibody, name in Kabat numbering, V domains shown)
# VH: B1 VH with G26Q, Y27F
# VL: B1 VL
# B9: H183/L072 VH G26P (antibody, name in Kabat numbering, V domains shown)
# VH: B1 VH with G26P, Y27F
# VL: B1 VL
# B10: H183/L072 VH F100gI (antibody, name in Kabat numbering, V domains shown)
# VH: B1 VH with Y27F, F113I
# VL: B1 VL
# B11: H183/L072 VH F29I (antibody, name in Kabat numbering, V domains shown)
# VH: B1 VH with Y27F, F29I
# VL: B1 VL
# B12: H183/L072 VH G26R (antibody, name in Kabat numbering, V domains shown)
# VH: B1 VH with G26R, Y27F
# VL: B1 VL
# B13: H183/L072 VH G52cD (antibody, name in Kabat numbering, V domains shown)
# VH: B1 VH with Y27F, G55D
# VL: B1 VL
# B14: H183/L072 VH G26F (antibody, name in Kabat numbering, V domains shown)
# VH: B1 VH with G26F, Y27F
# VL: B1 VL
# B15: H183/L072 VH F100gA (antibody, name in Kabat numbering, V domains shown)
# VH: B1 VH with Y27F, F113A
# VL: B1 VL
# B16: H183/L072 VH G26L (antibody, name in Kabat numbering, V domains shown)
# VH: B1 VH with G26L, Y27F
# VL: B1 VL
# B17: H183/L072 VH G26I (antibody, name in Kabat numbering, V domains shown)
# VH: B1 VH with G26I, Y27F
# VL: B1 VL
# B18: H183/L072 VH F100gM (antibody, name in Kabat numbering, V domains shown)
# VH: B1 VH with Y27F, F113M
# VL: B1 VL
# B19: H183/L072 VH G26H (antibody, name in Kabat numbering, V domains shown)
# VH: B1 VH with G26H, Y27F
# VL: B1 VL
# B20: H183/L072 VH G52cE (antibody, name in Kabat numbering, V domains shown)
# VH: B1 VH with Y27F, G55E
# VL: B1 VL
# B21: H183/L072 VH G26S (antibody, name in Kabat numbering, V domains shown)
# VH: B1 VH with G26S, Y27F
# VL: B1 VL
# B22: H183/L072 VH F29P (antibody, name in Kabat numbering, V domains shown)
# VH: B1 VH with Y27F, F29P
# VL: B1 VL
# B23: H183/L072 VH F29W (antibody, name in Kabat numbering, V domains shown)
# VH: B1 VH with Y27F, F29W
# VL: B1 VL
# B24: H183/L072 VH G26D (antibody, name in Kabat numbering, V domains shown)
# VH: B1 VH with G26D, Y27F
# VL: B1 VL
# B25: H183/L072 VH F29M (antibody, name in Kabat numbering, V domains shown)
# VH: B1 VH with Y27F, F29M
# VL: B1 VL
# B26: H183/L072 VH F29Y (antibody, name in Kabat numbering, V domains shown)
# VH: B1 VH with Y27F, F29Y
# VL: B1 VL
# B27: H183/L072 VH G26Y (antibody, name in Kabat numbering, V domains shown)
# VH: B1 VH with G26Y, Y27F
# VL: B1 VL
# B28: H183/L072 VH G26N (antibody, name in Kabat numbering, V domains shown)
# VH: B1 VH with G26N, Y27F
# VL: B1 VL
# B29: H183/L072 VH F29L (antibody, name in Kabat numbering, V domains shown)
# VH: B1 VH with Y27F, F29L
# VL: B1 VL
# B30: H183/L072 VH F100gL (antibody, name in Kabat numbering, V domains shown)
# VH: B1 VH with Y27F, F113L
# VL: B1 VL
# B31: H183/L072 VH G26A (antibody, name in Kabat numbering, V domains shown)
# VH: B1 VH with G26A, Y27F
# VL: B1 VL
# Target: T1, Human CD137 ECD (human)
# T1 construct: also called 4-1BB
# T1 sequence (chain, as listed by the source limits assumed): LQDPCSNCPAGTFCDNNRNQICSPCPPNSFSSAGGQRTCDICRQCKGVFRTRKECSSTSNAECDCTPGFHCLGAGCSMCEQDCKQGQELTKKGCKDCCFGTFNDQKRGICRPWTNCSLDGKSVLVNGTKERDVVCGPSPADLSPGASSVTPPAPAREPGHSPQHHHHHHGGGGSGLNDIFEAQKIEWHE
# Experiment: single mutant vs template dBBDu183H
row,Binder,fold change of affinity
1,B1,0.4 fold
2,B2,0.1 fold
3,B3,0.5 fold
4,B4,0.3 fold
5,B5,0.1 fold
6,B6,0.5 fold
7,B7,0.8 fold
8,B8,0.4 fold
9,B9,0.1 fold
10,B10,1 fold
11,B11,0.3 fold
12,B12,0.3 fold
13,B13,0.6 fold
14,B14,0.3 fold
15,B15,0.5 fold
16,B16,0.3 fold

row,Binder,fold change of affinity
1,B17,0.3 fold
2,B18,0.6 fold
3,B19,0.4 fold
4,B20,0.8 fold
5,B21,0.4 fold
6,B22,0.1 fold
7,B23,0.1 fold
8,B24,0.8 fold
9,B25,0.3 fold
10,B26,0.2 fold
11,B27,0.3 fold
12,B28,0.5 fold
13,B29,0.3 fold
14,B30,1.2 fold
15,B31,0.4 fold
